experiment: label from the status in PepcDB records

| Sequence | protein production |
| --- | --- |
| MSLKLIGMLDSPYVRRVAISLKSLGLPFEHHSLSVFSTFEQFKAINPVVKAPTLVCEGGEVLMDSSLIIDYLETLAGPQRSLMPTALPQRLRELRLVGLALAACEKSVQIVYERNLRPAEKQHGPWLERVGGQLQAAYGELEQELQKQPLPRDGSLGQAGISLAVAWSFSQMMVADQFNPGQFPAVRGFAEYAEQLPVFLATPATEGHHHHHH | not failed |
| MSLKTGRSNIIAFIVPDQNPFFTEVLTEISHECQKHHLHVAVASSEENEDKQQDLIETFVSQNVSAIILVPVKSKFQMKREWLKIPIMTLDRELESTSLPSITVDNEEAAYIATKRVLESTCKEVGLLLANPNISTTIGRKNGYNKAISEFDLNVNPSLIHYSDQQLGTNAQIYSGYEATKTLLSKGIKGIVATNHLLLLGALQAIKESEKEIKKDVIIVGFDDSYWNEIYTPKLTVISQPVKEMGQVAAKMIYKLIKGKDVTSIKLSTKLIIRESCSFNEGHHHHHH | not failed |
| MSLKYFKRLSDRERAIFEAGITLGAIYHQFCGTPVSPGTAEEVAKCIERAALLQPCVIDARVEVDVSSEDTDNYGGYTEVSGRNLRVTIVTRCGEWEAVGKLEFIEELNYPLMWVEEIRRVEQEGHHHHHH | not failed |
| MSLLEKDINLKIFKGNLIFTKTSDKFTIMKDSYIVVIDGKIASVSSNLPDKYKGNPIIDFRNNIIIPGMNDLHAHASQYKNLGIGMDKELLPWLNNYTFPEEAKFLNVDYAKKTYGRLIKDLIKNGTTRVALFATLHKDSTIELFNMLIKSGIGAYVGKVNMDYNCPDYLTENYITSLNDTEEIILKYKDKSNIVKPIITPRFVPSCSNELMDGLGKLSYKYRLPVQSHLSENLDEIAVVKSLHKKSNFYGEVYDKFGLFGNTPTLMAHCIHSSKEEINLIKRNNVTIVHCPTSNFNLGSGMMPVRKYLNLGINVVLGSDISAGHTCSLFKVIAYAIQNSKIKWQESGKKDMFLSTSEAFYMATKKGGSFFGKVGSFEEGYDFDALVINDSNLYPEDYDLTERLERFIYLGDDRNIMKRYVCGNEIFGPKFEGHHHHHH | not failed |
| MSLLFLAMAPKPKPWVQTEGPEKKKGRQAGREEDPFRSTAEALKAIPAEKRIIRVDPTCPLSSNPGTQVYEDYNCTLNQTNIENNNNKFYIIQLLQDSNRFFTCWNRWGRVGEVGQSKINHFTRLEDAKKDFEKKFREKTKNNWAERDHFVSHPGKYTLIEVQAEDEAQEAVVKVDRGPVRTVTKRVQPCSLDPATQKLITNIFSKEMFKNTMALMDLDVKKMPLGKLSKQQIARGFEALEALEEALKGPTDGGQSLEELSSHFYTVIPHNFGHSQPPPINSPELLQAKKDMLLVLADIELAQALQAVSEQEKTVEEVPHPLDRDYQLLKCQLQLLDSGAPEYKVIQTYLEQTGSNHRCPTLQHIWKVNQEGEEDRFQAHSKLGNRKLLWHGTNMAVVAAILTSGLRIMPHSGGRVGKGIYFASENSKSAGYVIGMKCGAHHVGYMFLGEVALGREHHINTDNPSLKSPPPGFDSVIARGHTEPDPTQDTELELDGQQVVVPQGQPVPCPEFSSSTFSQSEYLIYQESQCRLRYLLEVHL | not failed |
| MSLNLTIGTSKFNPPFEVWSGNNSSLYGFDIDLMQEICRRLHATCTFEAYIFDDLFPALKNREVDLVIASMIITDERKKHFIFSLPYMESNSQYITTVDSKISTFDDLHGKKIGVRKGTPYARQVLSENRNNQVIFYELIQDMLLGLSNNQVDASLMDYEAAKYWMASEPYAYKLIGKKYKLIGKKISIGEGYSIMANPDQFVLIKKINKILLEMEADGTYLRLYSEYFEGHHHHHH | not failed |
| MSLNMFWFLPTHGDGHYLGTEEGSRPVDHGYLQQIAQAADRLGYTGVLIPTGRSCEDAWLVAASMIPVTQRLKFLVALRPSVTSPTVAARQAATLDRLSNGRALFNLVTGSDPQELAGDGVFLDHSERYEASAEFTQVWRRLLQRETVDFNGKHIHVRGAKLLFPAIQQPYPPLYFGGSSDVAQELAAEQVDLYLTWGEPPELVKEKIEQVRAKAAAHGRKIRFGIRLHVIVRETNDEAWQAAERLISHLDDETIAKAQAAFARTDSVGQQRMAALHNGKRDNLEISPNLWAGVGLVRGGAGTALVGDGPTVAARINEYAALGIDSFVLSGYPHLEEAYRVGELLFPLLDVAIPEIPQPQPLNPQGEAVANDFIPRKVAQS | not failed |
| MSLNTSIYGLIGEKLGHSHSSYIHKLIFEKVGIKGIYNLFEVPKEKLKESVDTFKIIKCGGLNVTIPYKVEVMKELYEISEKARKIGAVNTLKFSREGISGFNTDYIGFGKMLSKFRVEIKNNICVVLGSGGAARAVLQYLKDNFAKDIYVVTRNPEKTSEIYGEFKVISYDELSNLKGDVIINCTPKGMYPKEGESPVDKEVVAKFSSAVDLIYNPVETLFLKYARESGVKAVNGLYMLVSQAAASEEIWNDISIDEIIVDEIFEVLEEKIKSEGHHHHHH | not failed |
| MSLNYEESNLIVFGVGFDGTTSNRPGARFASSSMRKEFYGLETYSPFLDLDLEDYNICDYGDLEISVGSTEQVLKEIYQETYKIVRDSKVPFMIGGEHLVTLPAFKAVHEKYNDIYVIHFDAHTDLREEYNNSKNSHATVIKRIWDIVGDNKIFQFGIRSGTKEEFKFATEEKHTYMEIGGIDTFENIVNMLNGKNIYLTIDLDVLDASVFPGTGTPEPGGVNYREFQEIFKIIKNSNINIVGCDIVELSPDYDTTGVSTVIACKILRELCLIISDKIKEGHHHHHH | not failed |
| MSLPAFVEALLTPAAYPHAVTTPIQLLQTHISYVFLTGDYAYKVKKPADFGFLNFTTLERRLFYCQEELRLNRRLAPDLYLAVVPIVAVGDRYCVAHPQDLPAGAEVIEYAVQMRQFDQSQLFSHLFAANQVTPHLIESLGKELAHFHRCAATSPRISEFGSPRAIAQVINNCHALAAQFVGRCQSPEQYAAIQAFTDDFLSRRQEWFVRRQAGGKIRECHGDLHLNNICLYNGKVQIFDCIEFNEEFRNIDGIYDAAFLLMDLEFRRRGDLANLFLNTYLEWSGDYEGAVLLPLYLCVRAYIRGNVNALALNDPAISGAEKAQIQATAAAYYGAAYRYTQPRQAKLYMMCGLSGAGKSTRGRRLAQAEQAIQIRSDAVRKHLAHLPLDRRSTDFPEVDLYSDAMTEKTYDQLLAYAELLLPQGQTVILDAKYDRVALRQPVIALAKKLHVPLEIHFCSAPPEELHRRLSARQGDIAEATPDLIATQMASFEPFLPEEEPYVRHVCD | failed |
| MSLRIAIVGAGALGLYYGALLQRSGEDVHFLLRRDYEAIAGNGLKVFSINGDFTLPHVKGYRAPEEIGPMDLVLVGLKTFANSRYEELIRPLVEEGTQILTLQNGLGNEEALATLFGAERIIGGVAFLCSNRGEPGEVHHLGAGRIILGEFLPRDTGRIEELAAMFRQAGVDCRTTDDLKRARWEKLVWNIPFNGLCALLQQPVNLILARDVSRKLVRGIMLEVIAGANAQGLATFIADGYVDDMLEFTDAMGEYKPSMEIDREEGRPLEIAAIFRTPLAYGAREGIAMPRVEMLATLLEQATGEGHHHHHH | not failed |
| MSLRKQSWLWMLLVILSETSATSTLKMFDNSQGMTKAALLAIIILLYCVCYYSLSKAVRHLPVGLAYATWSGTGILLVSTLSIIFYGQHPDIPAIVGMIVIATGIMIMNLFSKMGVDEQPEKLDSSNQSQPLETKIIH | failed |
| MSLRRLLAVFAVVGMVVIAGCAGGIDNGEPATSGVTEQATTTVATTETAAPTGELVVHQLNVGQGSSTLVVGPDGETLLIDTGDWTDDGEDVIAYLESQGVTRIDHLVTSHPDADHIGGHAAVIEHFETNGDGVGAVYDPGIASSSATYEEYLDAVEAHNVPLYRTQAGDSIPMSGATAQILAPPEGYLANEDRNENSIVVHVQFGASSFLLPGDGETASEEYLVDTYGDRLNSTVLVVGHHGSRSSTSAAFLEAVSPRVAVISSAYESQYGHPHEAVLERLAARSIPTYWTATHGTITFTSNGSAVTVATQQDAPTTATELRSGDPVEPGTGGGLVDRLVIPTAGSGTTPITDPDGTTEPAETTSTSTAGRLDLVEIHADAAGDDAENLNGEYITVEHTGASSLDLSGWTLADAAGHSYTIPEGTVLEPGDQLTIYTGSGTDTATELYWGQSSPVWNNGGDTISLRDATGTTVIEETY | failed |
| MSLRRRFCAFLKGMQSPMIFDVKAPILGFETIHKMRLQKIDEIFLRLNSTEENSVVSFTLVNPFALRKYEFEVPTPLKILLELEGAKSVLVANIMVVQTPIELSTVNYLAPLIFNLDKQLMGQVVLDSNKYPHYHLRENILSHTHE | failed |
| MSLRSKRVLVVEDNPDDIALIRRVLDRKDIHCQLEFVDNGAKALYQVQQAKYDLIILDIGLPIANGFEVMSAVRKPGANQHTPIVILTDNVSDDRAKQCMAAGASSVVDKSSNNVTDFYGRIYAIFSYWLTVNHCQEGHHHHHH | not failed |

Source: a protein production outcome set (Wang et al. 2014)
